Data on 1 substance can be found in patent publication US20190276534A1.

The target in the experiment is human PD-1 on CHO cells (human) (UniProt Q15116). In words: flow cytometry, CHO cells with human PD-1 incubated with antibody 100 nM, then PD-L2-FITC; competitor PD-L2-FITC.
human PD-1 on CHO cells (human), sequence (Q15116 25-288 limits assumed): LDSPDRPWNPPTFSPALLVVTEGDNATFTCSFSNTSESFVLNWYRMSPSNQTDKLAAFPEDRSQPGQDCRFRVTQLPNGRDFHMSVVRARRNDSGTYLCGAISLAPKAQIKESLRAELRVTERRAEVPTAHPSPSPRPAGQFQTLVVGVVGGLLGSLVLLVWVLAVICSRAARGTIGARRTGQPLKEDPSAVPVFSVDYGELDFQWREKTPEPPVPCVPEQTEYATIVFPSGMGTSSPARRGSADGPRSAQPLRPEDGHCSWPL

Regarding control IgG (antibody), the MFI (PD-L2-FITC) in presence of the antibody is 183000.
